Test [1] deals with calnexin (rat brain) (rat (endogenous in brain)) (UniProt P35565). Description: co-IP; 10% rat brain homogenate (also NEC versus GAERS brain) in 50 mM TrisHCl pH 8.0, 300 mM NaCl, 0.5% Triton X100, 0.5% DOC; rabbit polyclonal anti-CNX overnight at 4 °C, Sepharose G beads; blotted for Cav3.2; signal normalised to precipitated calnexin.
Test [2] has as its target calnexin in tsA-201 cells (not stated (endogenous human in tsA-201, or transfected mouse cDNA)) (UniProt P27824).
For test [3], the target named is GFP-tagged III-IV linker of human Cav3.2 with R1573P (human) (UniProt O95180). Description: co-IP; tsA-201 cells 72 h after transfection, NP40 lysis buffer; precipitated with anti-GFP (GFP-tagged Cav3.2 regions), blotted with anti-mCherry; densitometry normalised to expression levels.
Chain of UniProt O95180 (O95180 whole entry R1573P): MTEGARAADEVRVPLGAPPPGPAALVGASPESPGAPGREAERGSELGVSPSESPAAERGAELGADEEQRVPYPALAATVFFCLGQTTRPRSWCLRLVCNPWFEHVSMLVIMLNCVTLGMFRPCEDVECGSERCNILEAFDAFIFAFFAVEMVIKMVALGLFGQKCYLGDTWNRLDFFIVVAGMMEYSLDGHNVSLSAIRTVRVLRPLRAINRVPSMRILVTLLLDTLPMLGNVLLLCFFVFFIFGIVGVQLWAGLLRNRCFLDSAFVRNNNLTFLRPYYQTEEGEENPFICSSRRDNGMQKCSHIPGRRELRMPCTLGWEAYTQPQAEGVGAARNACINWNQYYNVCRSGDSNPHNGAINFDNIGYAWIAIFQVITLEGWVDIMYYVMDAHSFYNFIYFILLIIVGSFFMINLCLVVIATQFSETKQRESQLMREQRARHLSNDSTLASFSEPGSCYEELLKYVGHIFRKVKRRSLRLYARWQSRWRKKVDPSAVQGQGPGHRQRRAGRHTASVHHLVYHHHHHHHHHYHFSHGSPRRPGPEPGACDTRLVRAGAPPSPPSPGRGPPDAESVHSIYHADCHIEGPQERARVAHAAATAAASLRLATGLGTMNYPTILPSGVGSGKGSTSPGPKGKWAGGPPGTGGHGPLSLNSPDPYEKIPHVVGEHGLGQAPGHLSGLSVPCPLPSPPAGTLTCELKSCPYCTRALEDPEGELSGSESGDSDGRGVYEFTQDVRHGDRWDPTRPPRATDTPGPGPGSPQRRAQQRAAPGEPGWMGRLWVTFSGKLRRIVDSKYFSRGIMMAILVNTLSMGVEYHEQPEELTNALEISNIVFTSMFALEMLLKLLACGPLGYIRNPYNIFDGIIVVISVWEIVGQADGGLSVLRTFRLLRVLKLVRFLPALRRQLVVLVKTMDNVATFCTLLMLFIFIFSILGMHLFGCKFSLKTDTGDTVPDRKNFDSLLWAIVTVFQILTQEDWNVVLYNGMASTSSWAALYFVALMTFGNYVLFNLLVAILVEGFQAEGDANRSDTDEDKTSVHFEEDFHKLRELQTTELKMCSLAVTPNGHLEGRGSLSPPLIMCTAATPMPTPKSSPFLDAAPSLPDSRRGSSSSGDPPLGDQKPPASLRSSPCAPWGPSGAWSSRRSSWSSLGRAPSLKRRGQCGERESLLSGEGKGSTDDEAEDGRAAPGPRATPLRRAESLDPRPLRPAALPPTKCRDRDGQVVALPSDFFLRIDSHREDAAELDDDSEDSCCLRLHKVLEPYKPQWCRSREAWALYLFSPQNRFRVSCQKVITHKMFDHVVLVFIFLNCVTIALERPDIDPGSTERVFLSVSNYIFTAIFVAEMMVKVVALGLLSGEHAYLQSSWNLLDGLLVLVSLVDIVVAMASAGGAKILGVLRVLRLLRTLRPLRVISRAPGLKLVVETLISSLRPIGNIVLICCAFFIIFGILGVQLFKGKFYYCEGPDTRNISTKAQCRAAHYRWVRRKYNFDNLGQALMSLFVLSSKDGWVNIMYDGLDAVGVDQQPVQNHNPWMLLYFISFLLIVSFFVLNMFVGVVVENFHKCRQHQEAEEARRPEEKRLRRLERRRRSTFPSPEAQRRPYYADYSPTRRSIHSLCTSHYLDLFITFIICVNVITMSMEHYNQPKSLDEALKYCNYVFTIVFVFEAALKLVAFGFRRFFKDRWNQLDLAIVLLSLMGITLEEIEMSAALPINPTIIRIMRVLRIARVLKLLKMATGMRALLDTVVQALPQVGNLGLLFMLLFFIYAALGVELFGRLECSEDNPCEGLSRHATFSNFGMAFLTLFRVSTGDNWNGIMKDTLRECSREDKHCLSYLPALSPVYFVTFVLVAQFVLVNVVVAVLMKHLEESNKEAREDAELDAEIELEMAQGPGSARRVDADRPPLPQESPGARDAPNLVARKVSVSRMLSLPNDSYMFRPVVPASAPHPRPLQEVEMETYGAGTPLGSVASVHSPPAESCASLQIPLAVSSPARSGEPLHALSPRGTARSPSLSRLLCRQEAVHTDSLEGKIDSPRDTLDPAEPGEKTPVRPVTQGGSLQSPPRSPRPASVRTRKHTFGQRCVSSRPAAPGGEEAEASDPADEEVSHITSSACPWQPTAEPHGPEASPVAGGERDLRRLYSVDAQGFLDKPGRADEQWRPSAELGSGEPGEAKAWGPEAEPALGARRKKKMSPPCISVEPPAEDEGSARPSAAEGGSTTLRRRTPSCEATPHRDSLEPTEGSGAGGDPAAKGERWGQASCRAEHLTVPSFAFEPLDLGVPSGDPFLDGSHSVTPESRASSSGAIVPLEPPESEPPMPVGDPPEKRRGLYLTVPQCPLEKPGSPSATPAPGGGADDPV
Test [4] deals with GFP-tagged III-IV linker of rat Cav3.2 with exon 25, GAERS mutation R1584P (rat). The test is described as above.
In test [5] the target is GFP-tagged III-IV linker of rat Cav3.2 without exon 25, GAERS mutation R1584P (rat). The description is as above.
Test [6] deals with GFP-tagged III-IV linker of rat Cav3.2 without exon 25, wild type (rat). Described as above.

Chain of UniProt P27824 (P27824 21-592): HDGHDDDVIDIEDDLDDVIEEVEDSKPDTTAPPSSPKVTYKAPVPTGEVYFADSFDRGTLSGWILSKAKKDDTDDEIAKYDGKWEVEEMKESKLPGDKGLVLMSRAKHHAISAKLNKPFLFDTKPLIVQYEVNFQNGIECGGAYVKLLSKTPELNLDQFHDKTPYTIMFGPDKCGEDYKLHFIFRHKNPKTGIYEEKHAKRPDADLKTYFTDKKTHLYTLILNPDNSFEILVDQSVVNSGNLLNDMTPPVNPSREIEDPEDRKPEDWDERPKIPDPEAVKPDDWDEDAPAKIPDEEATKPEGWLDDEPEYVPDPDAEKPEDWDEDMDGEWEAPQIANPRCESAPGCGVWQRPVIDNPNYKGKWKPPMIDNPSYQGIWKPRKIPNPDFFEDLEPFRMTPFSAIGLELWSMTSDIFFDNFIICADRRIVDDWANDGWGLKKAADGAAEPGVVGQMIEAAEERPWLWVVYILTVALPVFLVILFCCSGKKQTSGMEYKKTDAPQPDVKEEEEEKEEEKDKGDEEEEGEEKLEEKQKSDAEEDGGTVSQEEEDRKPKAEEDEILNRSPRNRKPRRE
Chain of UniProt P35565 (P35565 21-591): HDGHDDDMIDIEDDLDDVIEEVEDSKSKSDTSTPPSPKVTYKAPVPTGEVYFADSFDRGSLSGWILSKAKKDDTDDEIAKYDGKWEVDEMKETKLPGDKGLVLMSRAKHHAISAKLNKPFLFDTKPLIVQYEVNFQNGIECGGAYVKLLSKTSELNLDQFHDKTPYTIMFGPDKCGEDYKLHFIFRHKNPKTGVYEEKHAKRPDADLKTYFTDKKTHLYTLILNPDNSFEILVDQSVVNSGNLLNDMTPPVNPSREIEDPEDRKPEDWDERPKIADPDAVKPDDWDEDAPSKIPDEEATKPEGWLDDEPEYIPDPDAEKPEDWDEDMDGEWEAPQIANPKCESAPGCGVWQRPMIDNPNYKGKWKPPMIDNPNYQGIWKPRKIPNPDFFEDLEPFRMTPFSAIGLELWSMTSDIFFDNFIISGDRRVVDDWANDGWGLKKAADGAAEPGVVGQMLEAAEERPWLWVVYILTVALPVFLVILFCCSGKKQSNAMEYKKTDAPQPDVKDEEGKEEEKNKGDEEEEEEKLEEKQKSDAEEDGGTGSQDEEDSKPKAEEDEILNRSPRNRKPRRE

Regarding “Cav3.2 T-type calcium channel of GAERS brain (R1584P), Q9EQ60 1-2359”, the decrease of Cav3.2 co-immunoprecipitated with calnexin, GAERS against NEC brain in test [1] worked out at 42%.
For the substance “HA-tagged human Cav3.2 channel, O95180 1-2353”, in test [2], the mean peak Ba2+ current density at −20 mV, tsA-201 cells expressing HA-hCav3.2 with the soluble calnexin C-tail CNX^CD against control cells (increase) was found to be 76% and the surface expression of HA-tagged Cav3.2 by immunostaining, tsA-201 cells expressing the calnexin C-tail CNX^CD against control cells (increase) worked out at 30%.
Take “mCherry-tagged calnexin lacking the luminal domain (CNX^BD) (from UniProt P35564 483-591) (domain or fragment)”: the decrease of co-immunoprecipitated calnexin C-tail against the wild-type III-IV linker in test [3] is 70%. For the same substance, the decrease of binding against wild-type rIII-IV (+25) came out at 82% in test [4] and 75% in test [6]. In test [5], this substance showed an additional decrease of binding (reference unclear: printed as against wild-type rIII-IV (+25)) of 69%.

The record behind these values is paper PMC5599688.
